Experimental findings from patent US20180148493A1 are described below.

This assay has as its target HLA-A2 (Homo sapiens).

In the case of AIIRILQQL (modifications not checked) […], the IC50 (commonly the point on the concentration scale where inhibition reaches its midpoint) came out at 385 nM.
